Results reported in patent EP4714976A1.

Assays:
[1] = target: recombinant mouse FGFR2b (mouse) (UniProt P21803); assay: ELISA, antibody 1ug/mL
FGFR1 (acro) = FGFR1 (acro) (UniProt P11362); assay: ELISA, antibody 10 µg/mL
[2] = target: recombinant mouse FGFR2b (mouse) (UniProt P21803); assay: BLI, antibody on AHC2 sensor

Sequence of recombinant mouse FGFR2b (mouse) (P21803 22-377): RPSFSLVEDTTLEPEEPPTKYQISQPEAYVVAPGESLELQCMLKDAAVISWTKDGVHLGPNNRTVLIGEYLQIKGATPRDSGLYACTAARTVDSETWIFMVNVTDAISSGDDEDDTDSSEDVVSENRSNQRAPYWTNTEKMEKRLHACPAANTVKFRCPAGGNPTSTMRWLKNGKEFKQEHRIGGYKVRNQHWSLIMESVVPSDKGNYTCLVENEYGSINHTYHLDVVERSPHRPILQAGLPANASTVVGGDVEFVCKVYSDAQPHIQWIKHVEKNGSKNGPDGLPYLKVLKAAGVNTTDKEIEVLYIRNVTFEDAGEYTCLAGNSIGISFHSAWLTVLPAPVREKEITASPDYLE
Sequence of FGFR1 (acro) (P11362 22-376): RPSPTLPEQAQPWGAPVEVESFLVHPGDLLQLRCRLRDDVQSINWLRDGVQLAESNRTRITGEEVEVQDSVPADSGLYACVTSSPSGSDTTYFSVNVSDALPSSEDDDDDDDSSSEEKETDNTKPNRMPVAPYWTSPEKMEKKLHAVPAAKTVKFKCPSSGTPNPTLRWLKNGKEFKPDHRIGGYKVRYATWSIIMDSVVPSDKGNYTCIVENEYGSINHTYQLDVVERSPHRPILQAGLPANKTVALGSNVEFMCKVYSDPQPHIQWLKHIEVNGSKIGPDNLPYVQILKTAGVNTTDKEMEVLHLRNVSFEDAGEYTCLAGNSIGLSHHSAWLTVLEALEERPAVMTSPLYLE

Binder	OD (450 nm) value [1]	OD (450 nm) value (FGFR1 (acro))	Kd [2] [nM]	koff [2] [s⁻¹]	kon [2] [M⁻¹ s⁻¹]
3F5 scFv-Fc (Fc fusion) EIQLQQSGAELVKPGASVKMSCKASGYTFRYYNMHWVKRTPGQGLEWIGLIYPDNGDTSYNQKFKGKATLTADTSSSTAYMQLSSLTSEDSAVYYCARGGLDYWGQGTTLTVSSGGGGSGGGGSGGGGSDIVLTQSPASLSASVGETVTITCGASENIYGALNWYQRKQGKSPQLLIYGATNLADGMSSRFSGSGSGRQYSLKISSLHPDDVATYYCQNVLSTPYTFGGGTKLEIKESKYGPPCPPCPAPEAAGGPSVFLFPPKPKDTLMISRTPEVTCVVVDVSQEDPEVQFNWYVDGVEVHNAKTKPREEQFNSTYRVVSVLTVLHQDWLNGKEYKCKVSNKGLPSSIEKTISKAKGQPREPQVYTLPPSQEEMTKNQVSLTCLVKGFYPSDIAVEWESNGQPENNYKTTPPVLDSDGSFFLYSKLTVDKSRWQEGNVFSCSVMHEALHNHYTQKSLSLSLG	2.38	0.108	36.1	0.00162	44800
3C9 scFv-Fc (Fc fusion) EIQLQQSGAELVKPGASVKMSCKASGYIFRYYNMHWVKRTPGQGLEWIGLIYPDNGDTSYNQKFKGKATLTADTSSSTAYMQLSSLTSEDSAVYYCARGGLDYWGQGTTLTVSSGGGGSGGGGSGGGGSDIQMIQSPASLSASVGETVTITCGASENIYGALNWYQRKQGKSPQLLIYGATNLADGMSSRFSGSGSGRQYSLKISSLHPDDVATYYCQNVLSTPYTFGGGTKLEIKESKYGPPCPPCPAPEAAGGPSVFLFPPKPKDTLMISRTPEVTCVVVDVSQEDPEVQFNWYVDGVEVHNAKTKPREEQFNSTYRVVSVLTVLHQDWLNGKEYKCKVSNKGLPSSIEKTISKAKGQPREPQVYTLPPSQEEMTKNQVSLTCLVKGFYPSDIAVEWESNGQPENNYKTTPPVLDSDGSFFLYSKLTVDKSRWQEGNVFSCSVMHEALHNHYTQKSLSLSLG	2.57	0.113	9.95	0.000483	48500
3C7 scFv-Fc (Fc fusion) EIQLQQSGAELVKPGASVKMSCKASGYIFRNYYIHWVKRTPGQGLEWIGAIYPDNGDTSYNQRFKVKATLTADTSSSTAYMQLSSLTSEDSAVYYCARAFTYWGQGTTLTVSSGGGGSGGGGSGGGGSDIQMIQSPASLSASVGETVTITCGASENIYGALNWYQRKQGKSPQLLIYGATNLADGMSSRFSGSGSGRQYSLKISSLHPDDVATYYCQNVLSTPYTFGGGTKLEIKESKYGPPCPPCPAPEAAGGPSVFLFPPKPKDTLMISRTPEVTCVVVDVSQEDPEVQFNWYVDGVEVHNAKTKPREEQFNSTYRVVSVLTVLHQDWLNGKEYKCKVSNKGLPSSIEKTISKAKGQPREPQVYTLPPSQEEMTKNQVSLTCLVKGFYPSDIAVEWESNGQPENNYKTTPPVLDSDGSFFLYSKLTVDKSRWQEGNVFSCSVMHEALHNHYTQKSLSLSLG	3.1	0.077	8.71	0.000365	41900
3D6 scFv-Fc (Fc fusion) QVQLQQSGAELVKPGASVKMSCKASGYTFRYYNMHWVKRTPGQGLEWIGLIYPDNGDTSYNQKFKGKATLTADTSSSTAYMQLSSLTSEDSAVYYCARGGLDYWGQGTSLTVSSGGGGSGGGGSGGGGSDIQMTQSPASLSVSVGETVTITCRASENIYSNLAWYQQKQGKSPQLLVYNAKTLADGVPSRFSGSGSGTQYSLKINSLQPEDFGSYYCQHFWSTPFTFGSGTKLELKESKYGPPCPPCPAPEAAGGPSVFLFPPKPKDTLMISRTPEVTCVVVDVSQEDPEVQFNWYVDGVEVHNAKTKPREEQFNSTYRVVSVLTVLHQDWLNGKEYKCKVSNKGLPSSIEKTISKAKGQPREPQVYTLPPSQEEMTKNQVSLTCLVKGFYPSDIAVEWESNGQPENNYKTTPPVLDSDGSFFLYSKLTVDKSRWQEGNVFSCSVMHEALHNHYTQKSLSLSLG	2.59	0.693	21.7	0.000593	27400
3E7 scFv-Fc (Fc fusion) QVQLQQSGAELVKPGASVKMSCKASGYTFTIYNIHWVRQTPGQGLEWIGLIYPDNGDTSYNQKFKAKATLTADKSSSTAYMQLSSLTSEDSAVYYCARGGFDYWGQGTTLTVSSGGGGSGGGGSGGGGSNIVMTQSQKFMSTSVGDRVSVTCKASQNVGTNVAWYQQKPGQSPKALIYSASYRYSGVPDRFTGSGSGTDFTLTISGVQAEDLADYYCQQHYNTPYTFGGGTKLEIKESKYGPPCPPCPAPEAAGGPSVFLFPPKPKDTLMISRTPEVTCVVVDVSQEDPEVQFNWYVDGVEVHNAKTKPREEQFNSTYRVVSVLTVLHQDWLNGKEYKCKVSNKGLPSSIEKTISKAKGQPREPQVYTLPPSQEEMTKNQVSLTCLVKGFYPSDIAVEWESNGQPENNYKTTPPVLDSDGSFFLYSKLTVDKSRWQEGNVFSCSVMHEALHNHYTQKSLSLSLG	2.29	0.093	40.9	0.00175	42800
3E1 scFv-Fc (Fc fusion) QVQLQQPGAEVVKPGASVKMSCKASGYTFTDYYIHWVKQTPGQGLEWIGAIYPDNGDTSYNQKFKVKATLTADKSSSTAYMQLSSLTSEDSAVYYCARAFTYWGQGTLVTVSAGGGGSGGGGSGGGGSDILITQSPASLSASVGETVTITCGASENIYGALNWYQRKQGKSPQLLIYGATNLADGMSSRFSGSGSGRQYSLKISSLHPDDVATYYCQNVLSTPYTFGGGTKLEIKESKYGPPCPPCPAPEAAGGPSVFLFPPKPKDTLMISRTPEVTCVVVDVSQEDPEVQFNWYVDGVEVHNAKTKPREEQFNSTYRVVSVLTVLHQDWLNGKEYKCKVSNKGLPSSIEKTISKAKGQPREPQVYTLPPSQEEMTKNQVSLTCLVKGFYPSDIAVEWESNGQPENNYKTTPPVLDSDGSFFLYSKLTVDKSRWQEGNVFSCSVMHEALHNHYTQKSLSLSLG	2.92	0.08	21.8	0.00126	57800

The next lines start with the values.

OD (450 nm) value [1]	OD (450 nm) value (FGFR1 (acro))	Kd [2] [nM]	koff [2] [s⁻¹]	kon [2] [M⁻¹ s⁻¹]	Binder
2.39	0.077	43.7	0.00156	35700	3H6 scFv-Fc (Fc fusion) QVQLQQSGAELVKPGASVKMSCKASGYTFSFYNIHWVRQTPGQGLEWIGLIYPDNGDTSYNQKFKAKATLTADKSSSTAYMQLSSLTSEDSAVYYCARGGFDYWGQGTTLTVSSGGGGSGGGGSGGGGSDIQMTQSPASLSASVGETVTITCRASENIYSYLAWYQQKQGKSPQLLVYNAKTLAEGVPSRFSGSGSGTQFSLKINSLQPEDFGSYYCQHHYGTPYTFGGGTKLEMKESKYGPPCPPCPAPEAAGGPSVFLFPPKPKDTLMISRTPEVTCVVVDVSQEDPEVQFNWYVDGVEVHNAKTKPREEQFNSTYRVVSVLTVLHQDWLNGKEYKCKVSNKGLPSSIEKTISKAKGQPREPQVYTLPPSQEEMTKNQVSLTCLVKGFYPSDIAVEWESNGQPENNYKTTPPVLDSDGSFFLYSKLTVDKSRWQEGNVFSCSVMHEALHNHYTQKSLSLSLG
2.87	0.086	52.5	0.00217	41300	3F10 scFv-Fc (Fc fusion) EVQLQQSGAELVKPGASVKMSCKASGYTFSFYNIHWVRQTPGQGLEWIGLIYPDNGDTSYNQKFKAKATLTADKSSSTAYMQLSSLTSEDSAVYYCARGGFDYWGQGTTLTVSSGGGGSGGGGSGGGGSDVLMTQSPASLSASVGETVTITCGASENIYGALNWYQRKQGKSPQLLIYGATNLADGMSSRFSGSGSGRQYSLKISSLHPDDVATYYCQNVLSTPYTFGGGTKLEIKESKYGPPCPPCPAPEAAGGPSVFLFPPKPKDTLMISRTPEVTCVVVDVSQEDPEVQFNWYVDGVEVHNAKTKPREEQFNSTYRVVSVLTVLHQDWLNGKEYKCKVSNKGLPSSIEKTISKAKGQPREPQVYTLPPSQEEMTKNQVSLTCLVKGFYPSDIAVEWESNGQPENNYKTTPPVLDSDGSFFLYSKLTVDKSRWQEGNVFSCSVMHEALHNHYTQKSLSLSLG
